Consider five molecules from patent US20190352419A1 (ALX ONCOLOGY, published 2019).

Some results are limits rather than exact numbers.

For experiment [1], the target named is T1, BL6 mouse SIRP-α protein (mouse (C57BL/6 strain), UniProt P97797 32-148).
T1 construct: Soluble SPR analyte; also called C57BL/6
T1 sequence: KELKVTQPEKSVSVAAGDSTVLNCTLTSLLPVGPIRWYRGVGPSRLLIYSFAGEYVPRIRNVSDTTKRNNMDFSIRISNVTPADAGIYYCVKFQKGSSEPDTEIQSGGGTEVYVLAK
Nature of the experiment: binding affinity KD (SPR; method not restated in Example 7).

The target of experiment [2] is T2, NOD mouse SIRP-α protein (mouse (NOD strain)).
T2 construct: Soluble SPR analyte
T2 chain: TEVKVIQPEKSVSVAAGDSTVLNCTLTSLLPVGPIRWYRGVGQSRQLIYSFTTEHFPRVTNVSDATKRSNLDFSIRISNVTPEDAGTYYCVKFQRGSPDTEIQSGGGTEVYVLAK
The description is as above.

In experiment [3] the target is T3, BALBc mouse SIRP-α protein (mouse (BALB/c strain)).
T3 construct: Soluble SPR analyte
T3 chain: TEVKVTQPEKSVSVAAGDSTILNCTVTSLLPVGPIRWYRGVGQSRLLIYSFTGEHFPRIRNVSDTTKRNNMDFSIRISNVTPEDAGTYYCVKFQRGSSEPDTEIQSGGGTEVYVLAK
Described as above.

Experiment [4] concerns the target T4, human SIRP-α v1 (human, UniProt P78324 31-149).
T4 construct: used as soluble SPR analyte; also called Human V1; hSIRPa v1
The description is as above.

The target in experiment [5] is T5, human SIRP-β (human, UniProt O00241 30-148).
T5 construct: also called SIRPb; hSIRPb
The description is as above.

Experiment [6] addresses T6, cynomolgus SIRP-α (SEQ ID NO:11) (cynomolgus, UniProt Q5TFQ8 30-148 (human entry)).
T6 construct: 'extracellular domain (e.g., the D1 domain)' of a cynomolgus SIRP-α polypeptide; soluble SPR analyte; also called cyno1
T6 chain: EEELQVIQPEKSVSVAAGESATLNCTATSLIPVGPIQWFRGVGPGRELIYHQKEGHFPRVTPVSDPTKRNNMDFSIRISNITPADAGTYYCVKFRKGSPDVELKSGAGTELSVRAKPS
Described as above.

The target in experiment [7] is T7, human SIRP-α v2 (human).
T7 construct: soluble SPR analyte; also called Human V2; hSIRPa v2
Described as above.

Experiment [8] concerns the target T8, human SIRP-γ (human, UniProt Q9P1W8 29-147).
T8 construct: also called SIRPg; hSIRPg
Described as above.

Experiment [9] has as its target T4, human SIRP-α v1. Nature of the experiment: SPR (refers to Table M).
For experiment [10], the target named is T1, BL6 mouse SIRP-α protein. Kind of experiment: SPR KD (ProteOn XPR36), antibody on chip, SIRP analyte in solution.

The Kd is the concentration at which binding is half-saturated.

T5 sequence (O00241 30-148): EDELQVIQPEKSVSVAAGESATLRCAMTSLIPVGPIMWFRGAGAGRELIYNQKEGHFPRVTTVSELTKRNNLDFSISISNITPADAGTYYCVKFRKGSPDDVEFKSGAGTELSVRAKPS
T4 sequence (P78324 31-149): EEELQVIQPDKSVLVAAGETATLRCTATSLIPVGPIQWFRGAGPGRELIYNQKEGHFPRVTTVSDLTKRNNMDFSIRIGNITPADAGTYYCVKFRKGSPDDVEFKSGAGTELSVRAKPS
T7 sequence (chain, as listed by the source): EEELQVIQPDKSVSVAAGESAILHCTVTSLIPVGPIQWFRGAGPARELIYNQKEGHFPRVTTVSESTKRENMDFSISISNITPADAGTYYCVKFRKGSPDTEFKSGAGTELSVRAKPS
T8 sequence (Q9P1W8 29-147): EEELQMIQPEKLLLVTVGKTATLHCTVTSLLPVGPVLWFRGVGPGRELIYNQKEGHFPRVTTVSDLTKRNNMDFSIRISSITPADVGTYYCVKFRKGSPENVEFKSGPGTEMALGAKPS

B1: PC301 (antibody, human IgG1, lambda, N297A)
heavy: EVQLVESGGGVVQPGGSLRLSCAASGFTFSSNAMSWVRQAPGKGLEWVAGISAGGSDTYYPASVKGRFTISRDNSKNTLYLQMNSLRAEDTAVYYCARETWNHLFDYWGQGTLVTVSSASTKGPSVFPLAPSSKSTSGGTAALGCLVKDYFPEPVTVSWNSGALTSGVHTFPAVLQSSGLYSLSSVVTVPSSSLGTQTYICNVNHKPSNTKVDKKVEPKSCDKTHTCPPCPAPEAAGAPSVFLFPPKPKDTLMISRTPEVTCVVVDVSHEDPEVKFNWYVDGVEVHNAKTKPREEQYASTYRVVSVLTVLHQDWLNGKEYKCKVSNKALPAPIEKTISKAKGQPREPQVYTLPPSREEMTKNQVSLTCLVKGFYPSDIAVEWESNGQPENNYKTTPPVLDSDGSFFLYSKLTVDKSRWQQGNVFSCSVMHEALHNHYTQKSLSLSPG
light: SYELTQPPSVSVSPGQTARITCSGGSYSSYYYAWYQQKPGQAPVTLIYSDDKRPSNIPERFSGSSSGTTVTLTISGVQAEDEADYYCGGYDQSSYTNPFGGGTKLTVLGQPKAAPSVTLFPPSSEELQANKATLVCLISDFYPGAVTVAWKADSSPVKAGVETTTPSKQSNNKYAASSYLSLTPEQWKSHRSYSCQVTHEGSTVEKTVAPTECS
notes: also called antibody PC301
Turning to B1, the Kd in experiment [1] was found to be 9.25 nM; in experiment [2] it was 2.93 nM; in experiment [3] it was 9.53 nM; in experiment [4], 0.00206 nM; in experiment [5], 0.0122 nM; in experiment [6], 0.0389 nM.

B2: PC367 (antibody, human IgG2, lambda, N297A)
heavy: EVQLVESGGGVVQPGGSLRLSCAASGFTFSSNAMSWVRQAPGKGLEWVAGISAGGSDTYYPASVKGRFTISRDNSKNTLYLQMNSLRAEDTAVYYCARETWNHLFDYWGQGTLVTVSSASTKGPSVFPLAPCSRSTSESTAALGCLVKDYFPEPVTVSWNSGALTSGVHTFPAVLQSSGLYSLSSVVTVPSSNFGTQTYTCNVDHKPSNTKVDKTVERKCCVECPPCPAPPVAGPSVFLFPPKPKDTLMISRTPEVTCVVVDVSHEDPEVQFNWYVDGVEVHNAKTKPREEQFASTFRVVSVLTVVHQDWLNGKEYKCKVSNKGLPAPIEKTISKTKGQPREPQVYTLPPSREEMTKNQVSLTCLVKGFYPSDIAVEWESNGQPENNYKTTPPMLDSDGSFFLYSKLTVDKSRWQQGNVFSCSVMHEALHNHYTQKSLSLSPG
light: SYELTQPPSVSVSPGQTARITCSGGSYSSYYYAWYQQKPGQAPVTLIYSDDKRPSNIPERFSGSSSGTTVTLTISGVQAEDEADYYCGGYDQSSYTNPFGGGTQLTVLGQPKANPTVTLFPPSSEELQANKATLVCLISDFYPGAVTVAWKADGSPVKAGVETTKPSKQSSDKYAASSYLSLTPEQWKSHRSYSCQVTHEGSTVEKTVAPTECS
notes: AB21 MutAll VH + human IgG2 N297A; Hum1 VL version 2 + IGLC1 SD light chain
For the molecule B2, the Kd in experiment [1] is 19.7 nM; in experiment [2] it was 6.37 nM; in experiment [3], 7.87 nM; in experiment [7], 0.0823 nM; in [4], 0.00211 nM; in experiment [8] it was 0.0352 nM. Moreover, the Kd in experiment [5] is 0.0327 nM; in experiment [6] it was 0.0501 nM.

B3: PC334 (antibody, human IgG1, lambda, N297A)
heavy: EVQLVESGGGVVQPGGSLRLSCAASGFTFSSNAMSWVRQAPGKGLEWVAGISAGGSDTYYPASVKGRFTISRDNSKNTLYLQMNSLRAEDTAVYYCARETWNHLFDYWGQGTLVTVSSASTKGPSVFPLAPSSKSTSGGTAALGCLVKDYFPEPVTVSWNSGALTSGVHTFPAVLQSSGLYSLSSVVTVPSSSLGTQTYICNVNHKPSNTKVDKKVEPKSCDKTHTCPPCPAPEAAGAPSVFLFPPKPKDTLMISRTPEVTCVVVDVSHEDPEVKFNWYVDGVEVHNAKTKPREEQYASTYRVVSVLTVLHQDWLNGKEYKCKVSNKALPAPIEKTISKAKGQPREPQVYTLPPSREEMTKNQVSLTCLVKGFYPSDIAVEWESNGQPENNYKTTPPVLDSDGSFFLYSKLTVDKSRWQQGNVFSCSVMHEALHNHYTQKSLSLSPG
light: SYELTQPPSVSVSPGQTARITCSGGSYSSYYYAWYQQKPGQAPVTLIYSDDKRPSNIPERFSGSSSGTTVTLTISGVQAEDEADYYCGGYDQSSYTNPFGGGTKLTVLGQPKANPTVTLFPPSSEELQANKATLVCLISDFYPGAVTVAWKADGSPVKAGVETTKPSKQSNNKYAASSYLSLTPEQWKSHRSYSCQVTHEGSTVEKTVAPTECS
notes: Original Hum1 VL + IGLC1 light chain; also called antibody PC334; Hum1_IGLC1
With B3, the Kd stood at 3.29 nM in experiment [1]; 8.19 nM in [2]; 6.75 nM in [3]; 0.0438 nM in experiment [7]; 0.0151 nM in experiment [4]; 0.0452 nM in [8]. The Kd in experiment [5] was 0.0371 nM; in [6], 0.0774 nM.

B4: Hum8/AB21_HC_Mutall (antibody, V domains shown)
VH: EVQLVESGGGVVQPGGSLRLSCAASGFTFSSNAMSWVRQAPGKGLEWVAGISAGGSDTYYPASVKGRFTISRDNSKNTLYLQMNSLRAEDTAVYYCARETWNHLFDYWGQGTLVTVSS
VL: SYELTQPPSVSVSPGQTARITCSGGAYSSYYYAWYQQKPGQAPVLVIYSDSKRPSGIPERFSGSSSGTTVTLTISGVQAEDEADYYCGGYDQSSYTNPFGGGTKLTVL
With B4, the Kd was no more than 0.01 nM in experiment [9] and 415000 nM in experiment [10].

B5: Hum9/AB21_HC_Mutall (antibody, V domains shown)
VH: EVQLVESGGGVVQPGGSLRLSCAASGFTFSSNAMSWVRQAPGKGLEWVAGISAGGSDTYYPASVKGRFTISRDNSKNTLYLQMNSLRAEDTAVYYCARETWNHLFDYWGQGTLVTVSS
VL: SYELTQPPSVSVSPGQTARITCSGGAYSSYYYAWYQQKPGQAPVLVIYSDDKRPSGIPERFSGSSSGTTVTLTISGVQAEDEADYYCGGYDQSSYTNPFGGGTKLTVL
Take B5: the results for the Kd in experiment [9] and in experiment [10] were no more than 0.01 nM and 533000 nM, respectively.
